Experimental data reported in the supplement of paper PMC10201428.
± gives the standard deviation of the averaged measurements.

B1: library; a variant is named by its letters at N, in order (parent)
chain: AATGTTGTTGATGCAACCATAAAGTGATATTTAATAATTATTTATAATCAGCAACTTAACCACAAAACAACCATATATTGATATNTCACAAAACAACCATAANTTGATATTTTTGTGAATCGAGTATTTCAGCAAAACTACTGCAGTAAGAA

Legend:
[1] = variants of: B1; test: relative integration efficiency (T-LR orientation) vs wild-type transposon end (log2 (normalized fold change)); transposon end mutated: left end; higher = more efficient transposition; details: with VchCAST RNA-guided transposition machinery (E. coli BL21(DE3) host, lacZ target)
Outline: (§1)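 Each barcoded pool, 1549 left-end or 1849 right-end transposon variants in a pUC57 mini-transposon donor, went into E. coli BL21(DE3) with a T7-driven effector plasmid (CRISPR array, tniQ-cas8-cas7-cas6, tnsA-tnsB-tnsC). Plates contained 0.1 mM IPTG and were held at 37°C for 18 h. Input plasmids and genomic integration junctions were PCR-amplified and read by Illumina sequencing, with two biological output replicates and four reference barcodes. Relative integration efficiency is the fold change of output over input barcode abundance, normalised to the reference barcodes and log-transformed.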

[2] = variants of: B1; test: relative integration efficiency (T-RL orientation) vs wild-type transposon end (log2 (normalized fold change)); transposon end mutated: left end; higher = more efficient transposition; details: with VchCAST RNA-guided transposition machinery (E. coli BL21(DE3) host, lacZ target)
Outline: as §1

Q: AATGTTGTTGATGCAACCATAAAGGGATATTTAATAATTATTTATAATCAGCAACTTAACCACAAAACAACCATATATGGATATCTCACAAAACAACCATAAGTGGATATTTTTGTGAATCGAGTATTTCAGCAAAACTACTGCAGTAAGAA was tested. Which “relative integration efficiency (log2)” value [1] did it give?
A: -3.03 ± 1.7

Q: What about the “relative integration efficiency (log2)” value [2] of the same variant?
A: -2.73 ± 1.2

Q: What does the source list for AATGTTGTTGATGCAACCATAAAGGTATATTTAATAATTATTTATAATCAGCAACTTAACCACAAAACAACCATATATTGATATCTCACAAAACAACCATAAGTTGATATTTTTGTGAATCGAGTATTTCAGCAAAACTACTGCAGTAAGAA?
A: relative integration efficiency (log2) [1]: -0.611 ± 0.7; relative integration efficiency (log2) [2]: -0.737 ± 0.33

Q: Which results are given for AATGTTGTTGATGCAACCATAAAGTGAATAATAATAATTATTTATAATCAGCAACTTAACCACAAAACAACCATATATTGATATCTCACAAAACAACCATAAGTTGATATTTTTGTGAATCGAGTATTTCAGCAAAACTACTGCAGTAAGAA?
A: relative integration efficiency (log2) [1]: -0.974 ± 0.69; relative integration efficiency (log2) [2]: -1.12 ± 0.46

Q: How did the “relative integration efficiency (log2)” value [1] turn out when AATGTTGTTGATGCAACCATAAAGTGAAATTTAATAATTATTTATAATCAGCAACTTAACCACAAAACAACCATATATTGATATCTCACAAAACAACCATAAGTTGATATTTTTGTGAATCGAGTATTTCAGCAAAACTACTGCAGTAAGAA was run?
A: -0.399 ± 0.64

Q: What about the “relative integration efficiency (log2)” value [2] of the same variant?
A: -0.37 ± 0.28

Q: What does the source list for AATGTTGTTGATGCAACCATAAAGTGACATTTAATAATTATTTATAATCAGCAACTTAACCACAAAACAACCATATATTGATATCTCACAAAACAACCATAAGTTGATATTTTTGTGAATCGAGTATTTCAGCAAAACTACTGCAGTAAGAA?
A: relative integration efficiency (log2) [1]: -0.0735 ± 0.44; relative integration efficiency (log2) [2]: -0.273 ± 0.15

Q: Which results are given for AATGTTGTTGATGCAACCATAAAGTGAGATTTAATAATTATTTATAATCAGCAACTTAACCACAAAACAACCATATATTGATATCTCACAAAACAACCATAAGTTGATATTTTTGTGAATCGAGTATTTCAGCAAAACTACTGCAGTAAGAA?
A: relative integration efficiency (log2) [1]: -0.845 ± 0.19; relative integration efficiency (log2) [2]: -0.536 ± 0.28

Q: For AATGTTGTTGATGCAACCATAAAGTGAAATTTAATAATTATTTATAATCAGCAACTTAACCACAAAACAACCATATATTGAAATCTCACAAAACAACCATAAGTTGAAATTTTTGTGAATCGAGTATTTCAGCAAAACTACTGCAGTAAGAA, which “relative integration efficiency (log2)” value [1] is on record?
A: -2.22 ± 2.1

Q: What about the “relative integration efficiency (log2)” value [2] of the same variant?
A: -1.09 ± 0.57

Q: Which “relative integration efficiency (log2)” value [1] does the source give for AATGTTGTTGATGCAACCATAAAGGTCGATTTAATAATTATTTATAATCAGCAACTTAACCACAAAACAACCATATATTGATATCTCACAAAACAACCATAAGTTGATATTTTTGTGAATCGAGTATTTCAGCAAAACTACTGCAGTAAGAA here?
A: -2.73 ± 1.1

Q: And the “relative integration efficiency (log2)” value [2]?
A: -2.55 ± 0.99

Q: What does the source list for AATGTTGTTGATGCAACCATAAAGGGATATTTAATAATTATTTATAATCAGCAACTTAACCACAAAACAACCATATATTGATATCTCACAAAACAACCATAAGTTGATATTTTTGTGAATCGAGTATTTCAGCAAAACTACTGCAGTAAGAA?
A: relative integration efficiency (log2) [1]: -0.618 ± 1; relative integration efficiency (log2) [2]: -0.455 ± 0.37

Q: For AATGTTGTTGATGCAACCATAAAGTGAATTTTAATAATTATTTATAATCAGCAACTTAACCACAAAACAACCATATATTGATATCTCACAAAACAACCATAAGTTGATATTTTTGTGAATCGAGTATTTCAGCAAAACTACTGCAGTAAGAA, which “relative integration efficiency (log2)” value [1] is on record?
A: -0.0554 ± 0.23

Q: What about the “relative integration efficiency (log2)” value [2] of the same variant?
A: -0.309 ± 0.44
